According to patent US7169567:
Values joined by “and” are separate entries in the source; they are usually repeats but may differ in a detail not shown here. Identical values can stand only once.

Tests used:
Assay in all cases: cell-based or functional assay
[1] = target: human PTH-1 receptor (human) (UniProt Q03431)
[2] = target: truncated rat PTH-1 receptor rΔNt (rat) (UniProt P25961)
[3] = target: intact rat PTH-1 receptor with HA epitope tag (rWT-HA) (rat) (UniProt P25961)
[4] = target: intact rat secretin receptor (rat) (UniProt P23811)
Sequence of intact rat secretin receptor (rat) (P23811 26-449): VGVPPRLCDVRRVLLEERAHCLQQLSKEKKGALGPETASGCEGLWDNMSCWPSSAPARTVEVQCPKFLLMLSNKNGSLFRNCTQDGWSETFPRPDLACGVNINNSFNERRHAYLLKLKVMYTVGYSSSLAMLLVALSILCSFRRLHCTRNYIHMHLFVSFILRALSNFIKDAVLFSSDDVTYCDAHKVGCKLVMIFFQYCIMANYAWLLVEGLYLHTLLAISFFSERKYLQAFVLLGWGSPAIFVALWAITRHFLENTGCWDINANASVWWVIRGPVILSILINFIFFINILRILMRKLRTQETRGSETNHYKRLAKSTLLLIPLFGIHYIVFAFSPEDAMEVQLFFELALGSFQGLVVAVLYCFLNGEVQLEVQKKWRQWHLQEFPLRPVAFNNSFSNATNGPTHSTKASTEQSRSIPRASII

Sequence of human PTH-1 receptor (human) (Q03431 27-593): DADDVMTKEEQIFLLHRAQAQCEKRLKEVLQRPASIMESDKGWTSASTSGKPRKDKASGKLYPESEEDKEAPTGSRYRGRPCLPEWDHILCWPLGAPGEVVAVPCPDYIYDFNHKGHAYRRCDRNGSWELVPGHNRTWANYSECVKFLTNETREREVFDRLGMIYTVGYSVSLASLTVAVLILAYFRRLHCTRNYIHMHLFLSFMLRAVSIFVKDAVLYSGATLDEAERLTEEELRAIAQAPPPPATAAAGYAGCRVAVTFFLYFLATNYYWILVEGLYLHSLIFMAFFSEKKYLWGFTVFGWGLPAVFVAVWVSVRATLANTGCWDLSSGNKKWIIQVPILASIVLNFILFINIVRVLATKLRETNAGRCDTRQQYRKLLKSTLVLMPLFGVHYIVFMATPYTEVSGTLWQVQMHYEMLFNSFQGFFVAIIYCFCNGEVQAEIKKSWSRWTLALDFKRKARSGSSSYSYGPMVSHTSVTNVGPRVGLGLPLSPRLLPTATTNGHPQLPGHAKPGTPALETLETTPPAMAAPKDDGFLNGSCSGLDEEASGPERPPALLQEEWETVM
Sequence of intact rat PTH-1 receptor with HA epitope tag (rWT-HA) (rat) (P25961 other isoform, or with tags, fused parts or gaps): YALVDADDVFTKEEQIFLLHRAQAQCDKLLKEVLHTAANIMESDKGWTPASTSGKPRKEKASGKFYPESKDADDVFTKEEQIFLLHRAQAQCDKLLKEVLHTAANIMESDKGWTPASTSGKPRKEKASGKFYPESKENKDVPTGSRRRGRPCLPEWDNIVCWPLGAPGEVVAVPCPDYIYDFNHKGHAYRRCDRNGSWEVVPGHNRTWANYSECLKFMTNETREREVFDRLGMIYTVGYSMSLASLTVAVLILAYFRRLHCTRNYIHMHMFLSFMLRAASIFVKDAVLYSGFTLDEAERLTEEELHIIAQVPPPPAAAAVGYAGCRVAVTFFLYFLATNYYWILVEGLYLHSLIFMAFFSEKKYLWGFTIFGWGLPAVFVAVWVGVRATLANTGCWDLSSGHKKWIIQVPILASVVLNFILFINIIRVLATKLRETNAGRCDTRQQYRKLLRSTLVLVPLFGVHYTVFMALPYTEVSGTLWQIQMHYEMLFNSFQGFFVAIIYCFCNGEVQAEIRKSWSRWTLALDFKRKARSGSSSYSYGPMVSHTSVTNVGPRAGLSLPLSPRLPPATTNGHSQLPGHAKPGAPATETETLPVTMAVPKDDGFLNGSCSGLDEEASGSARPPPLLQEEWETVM
Sequence of truncated rat PTH-1 receptor rΔNt (rat) (P25961 other isoform, or with tags, fused parts or gaps mutant): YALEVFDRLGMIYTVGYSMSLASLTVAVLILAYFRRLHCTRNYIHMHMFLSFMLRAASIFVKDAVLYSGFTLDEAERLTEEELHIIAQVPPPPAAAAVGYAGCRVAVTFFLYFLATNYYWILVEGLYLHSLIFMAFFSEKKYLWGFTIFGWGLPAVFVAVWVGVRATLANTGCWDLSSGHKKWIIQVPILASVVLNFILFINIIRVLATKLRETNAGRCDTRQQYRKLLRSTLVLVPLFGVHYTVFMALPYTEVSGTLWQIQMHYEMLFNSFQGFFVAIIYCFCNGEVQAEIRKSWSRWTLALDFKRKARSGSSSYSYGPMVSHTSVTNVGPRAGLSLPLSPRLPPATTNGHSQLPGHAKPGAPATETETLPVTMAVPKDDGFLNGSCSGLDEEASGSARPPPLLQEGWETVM

Substance: [Nle8,21,Tyr34]rPTH-(1-34)NH2 (from UniProt P04089 32-65) (peptide)
- EC50 of the cAMP response [1]: 2 nM
- increase in intracellular cAMP levels relative to the basal cAMP level [1]: 50 fold
- maximum cAMP response [1]: 254 pmole/well
- decrease in cAMP potency compared with rWT-HA [2]: 100 fold

Substance: [Leu11,D-Trp12]hPTHrP(7-34)NH2 (from UniProt P12272 43-70) (peptide)
- reduction of the cAMP efficacy of the agonist PTH(1-14) [3]: < 70%
- reduction of the cAMP efficacy of the agonist PTH(1-34) [3]: < 70%

Substance: rat PTH(1-15) (from UniProt P04089 32-46) (peptide)
- cAMP formation over the basal level [1]: 20 fold
- dose required for cAMP activation relative to PTH(1-34) (orders of magnitude) [1]: 5 and 6

Substance: secretin(1-27) (peptide)
- increase in cAMP levels [4]: 50 fold
